# Data from patent US20150141617A1, “PRODUCTION AND PURIFICATION OF ACTIVE EUKARYOTIC FORMYLGLYCINEGENERATING ENZYME (FGE) VARIANTS” (Universität Bielefeld, priority 2013, published 2015).
# The star is where a group is joined. Decanoyl = CCCCCCCCCC(=O)*; CH2Cl = ClC*
# Tests used:
# [1] = target: T1, recombinant furin (rFurin) (Homo sapiens, UniProt P09958); assay: In vitro furin cleavage assay; type: biochemical; details: 25 μM inhibitor, HT1080 cell lysate
# T1 construct: purchased NEB
# Description: (§1) CHO-FD11 cells stably expressing FGE-His6 or HT1080 cells were grown for 24 h, and cells and medium were harvested. For treatment with furin in vitro cell pellets were resuspended in HEPES pH 7.5 buffer containing 1 mM CaCl2 and 0.5% Triton X-100 and lysed in the absence of protease inhibitors by sonication on ice. Appropriate amounts of cell lysate and medium were incubated for 3 h at 25° C. with 4 units of furin (NEB) with or without 25 μM decanoyl-RVKR-CMK (Alexis biochemicals) as indicated in the figures. For in vivo treatment, HT1080 Tet-On cells were transiently transfected with pBI-FGE-HA and 4 h post-transfection, the medium was replenished with medium containing 20 ng/mL doxycycline and various concentrations of decanoyl-RVKR-CMK or only DMSO as a carrier control. The cells and medium were collected after 16 h of induction/treatment for further analysis. The samples were boiled in Laemmli buffer and analyzed by SDS-PAGE and western blotting with FGE antiserum.
# In mammals, the proproteinconvertase family comprises nine enzymes that differ in their substrate specificity and tissue-specific expression and/or subcellular localization (17). Furin is the best characterized mammalian PC with a ubiquitous tissue distribution and it is the major convertase in the secretory pathway. To analyze the role of furin in the processing of FGE the inventors expressed FGE in cells that are deficient for furin. […] When cell homogenate and medium from CHO-FD11 cells stably expressing FGE-His were treated with commercially available recombinant furin (rFurin), almost half the amount of FGE was processed, as observed for both cells and medium (FIG. 12D). Using this in vitro furin cleavage assay, the inventors also examined whether endogenous intracellular FGE is susceptible to furin processing. Indeed, rFurin readily converted almost 90% of endogenous fl-FGE from untransfected HT1080 cells to the truncated form (FIG. 12E).
# Although FGE is an ER resident protein, it lacks a canonical ER-retention motif. […] In this study, using the in vitro furin cleavage assay, the inventors assessed furin-mediated processing of the FGE-ERp44 covalent complex (FIG. 8). Homogenates, pre-treated with NEM (to prevent post-lysis disulfide shuffling), from HT1080 cells expressing either FGE alone or FGE plus myc-ERp44 together from a bi-directional promoter were incubated with rFurin and analyzed by SDS-PAGE under non-reducing conditions. Upon overexpression, intracellular FGE via its N-terminal cysteines (C50 and C52) forms covalently cross-bridged homodimers (FIG. 15, lane 1 and 2) and, additionally, FGE-ERp44 heterodimers when co-expressed with ERp44 (FIG. 15, lane 4 and 6) as previously observed (13). Removal of the N-terminus by furin cleavage should lead to a disappearance of the homo-/hetero-dimeric FGE forms, which serves as an indicator for accessibility of the furin cleavage motif in FGE.
# [2] = test system: PCs (furin or furin-like convertases); assay: Treatment of HT1080 Tet-On cells expressing FGE with RVKR-CMK inhibitor; type: cell-based, human; details: increasing concentrations of the inhibitor, 16 h
# Description: as §1
# In order to verify that the N-terminus of FGE containing the RYSR motif is subject to processing by furin or furin-like convertases, the inventors studied the secretion profile of FGE in cells in the presence of decanoyl-RVKR-ChloroMethylKetone (CMK), an inhibitor for PCs (FIG. 12A). […]
# T1 sequence (P09958 108-794): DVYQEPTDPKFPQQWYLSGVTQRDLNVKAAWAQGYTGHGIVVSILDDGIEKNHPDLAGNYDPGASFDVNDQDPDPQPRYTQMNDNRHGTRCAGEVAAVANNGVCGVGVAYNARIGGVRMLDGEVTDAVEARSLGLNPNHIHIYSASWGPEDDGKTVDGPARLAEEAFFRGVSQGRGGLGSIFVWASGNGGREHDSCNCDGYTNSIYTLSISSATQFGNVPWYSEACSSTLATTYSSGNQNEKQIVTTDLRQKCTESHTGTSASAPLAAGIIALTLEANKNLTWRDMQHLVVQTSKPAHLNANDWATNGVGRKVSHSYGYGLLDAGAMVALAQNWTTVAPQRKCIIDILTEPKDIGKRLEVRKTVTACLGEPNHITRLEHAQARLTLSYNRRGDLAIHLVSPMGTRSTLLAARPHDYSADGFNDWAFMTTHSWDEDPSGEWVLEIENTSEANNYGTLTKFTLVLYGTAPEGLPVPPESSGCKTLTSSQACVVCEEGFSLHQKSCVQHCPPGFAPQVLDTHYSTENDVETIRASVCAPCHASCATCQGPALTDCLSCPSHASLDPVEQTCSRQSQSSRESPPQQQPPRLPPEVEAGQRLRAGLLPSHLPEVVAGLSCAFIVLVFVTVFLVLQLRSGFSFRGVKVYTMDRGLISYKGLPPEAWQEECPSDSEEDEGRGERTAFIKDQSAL
substance,measurement,setting,value
"decanoyl-RVKR-ChloroMethylKetone (Decanoyl-RVKR-CH2Cl) [RVKR-CMK, reference compound]",inhibition of furin-mediated processing of FGE,[1],completely abrogated
same,amount of the truncated form of FGE in the secretions,[2],decreased by the inhibitor in a concentration dependent manner
